In patent US20220119522A1 (DENALI THERAPEUTICS, published 2022):
No end group written: not given here.

Assays:
[1] = target: T1, human TREM2 on the cell surface (human, UniProt Q9NZC2 19-230); experiment: cell-based or functional assay
T1 sequence: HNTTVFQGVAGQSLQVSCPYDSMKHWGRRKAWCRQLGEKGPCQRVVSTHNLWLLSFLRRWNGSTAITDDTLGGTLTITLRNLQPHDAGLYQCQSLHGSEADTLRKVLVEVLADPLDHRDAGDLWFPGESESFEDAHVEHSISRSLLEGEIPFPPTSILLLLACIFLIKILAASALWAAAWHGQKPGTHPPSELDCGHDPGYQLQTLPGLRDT

[2] = target: T1, human TREM2 on the cell surface; experiment: cell binding, human macrophages, dose titration
[3] = target: T2, human TREM2 full length stalk region peptide (aa 129-172) (human, biotinylated (site not stated)); experiment: ELISA on biotinylated peptide captured by streptavidin; A450 normalised to isotype control
T2 construct: also called Human TREM2 peptide (aa 129-172); full-length TREM2 stalk peptide
T2 peptide: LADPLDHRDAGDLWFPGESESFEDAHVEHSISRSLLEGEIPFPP
Procedure: (§1) TREM2 antibodies were evaluated for binding to human and mouse TREM2 stalk region peptides. […] Antibody binding to TREM2 stalk peptides was detected using standard sandwich ELISA. Briefly, a 96-well half-area ELISA plate was coated with streptavidin overnight at 4° C. The following day, biotinylated TREM2 stalk peptides diluted in 1% BSA/PBS were added to the plate and incubated for 1 hour. Antibodies diluted in 1% BSA/PBS were then added and incubated for 1 hour. Antibodies bound to peptide were detected with anti-human kappa-HRP secondary antibody (Bethyl Laboratories, Inc.) diluted in 1% BSA/PBS. Plates were assayed by reaction with a detection reagent (One-step TMB Ultra, Thermo) and measurement of absorbance at 450 nm (A450) by standard spectrophotometry instrumentation (BioTek®). Data are shown as normalized values (fold over background where background=isotype control).

[4] = target: T3, human TREM2 truncated stalk peptide (aa 149-163) (human, also: biotinylated (site not given here)); experiment: as above
T3 construct: also called Human TREM2 peptide (aa 149-163); truncated stalk peptide containing the ADAM10/17 cleavage site
T3 peptide: SFEDAHVEHSISRSL
Procedure: as §1

[5] = target: T4, His-tagged human TREM2 ECD (human, UniProt Q9NZC2 19-172); experiment: SPR (Biacore), antibody captured via anti-human Fab, recombinant TREM2 ECD injected, 1:1 fit
T4 construct: Biacore and HDX say only recombinant human TREM2 (ECD); also called recombinant human TREM2; hTREM2
T4 sequence: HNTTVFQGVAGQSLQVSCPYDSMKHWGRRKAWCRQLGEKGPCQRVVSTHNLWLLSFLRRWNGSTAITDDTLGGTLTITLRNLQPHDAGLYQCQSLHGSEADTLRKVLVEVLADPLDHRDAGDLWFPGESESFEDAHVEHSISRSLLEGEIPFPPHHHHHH
Procedure: (§2) Surface plasmon resonance (Biacore™ 8K instrument) was used to measure anti-TREM2 antibody affinities for human and cynomolgus TREM2 ECD. Anti-TREM2 antibodies were captured using Human Fab Capture Kit (GE Healthcare Life Sciences, Catalog No. 28958325) on a Biacore Series S CM5 sensor chip (GE Healthcare Life Sciences, Catalog No. 29149604). Serial 3-fold dilutions of recombinant human or cynomolgus TREM2 were injected at a flow rate of 30 μL/min. Antibody binding was monitored for 300 seconds, followed by monitoring of antibody dissociation for 600+seconds in HBS-EP+ running buffer (GE Healthcare Life Sciences, Catalog No. BR100669). The binding response was corrected by subtracting the RU value from a blank flow cell. A 1:1 Languir model of simultaneous fitting of kₒₙ and koff was used for kinetics analysis.

[6] = target: T5, recombinant cynomolgus TREM2 ECD (cynomolgus); experiment: as above
T5 construct: extracellular domain; also called cyno TREM2
Procedure: as §2

[7] = target: T6, mouse TREM2 full length stalk region peptide (aa 131-169) (mouse, UniProt Q99NH8 131-169, biotinylated (site not stated)); experiment: ELISA on biotinylated peptide captured by streptavidin; A450 normalised to isotype control
T6 peptide (looked up): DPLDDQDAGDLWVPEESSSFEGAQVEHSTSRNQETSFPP
Procedure: as §1

[8] = target: T4, His-tagged human TREM2 ECD; experiment: SPR (Biacore)
Procedure: as §2
(§3) Sequence optimization was conducted by searching within CDR sequences for residues that are susceptible to chemical modification (e.g., asparagine deamidation motifs (NG), aspartic acid isomerization motifs (DS), and potential oxidation residues (tryptophan (W) and methionine (M)) and making amino acid substitutions with conservative and germline residues to remove such sequence liabilities. Humanized and sequence-optimized variants of anti-TREM2 antibodies were then analyzed for binding kinetics using Biacore and dose-titrated cell binding to HEK293-H6 cells (see, Example 1 for representative protocols).

[9] = target: T1, human TREM2 on the cell surface; experiment: flow cytometry, dose-titrated binding to HEK293-H6 cells
Procedure: After incubation, the cells were centrifuged and washed in FACS buffer (PBS+0.5% BSA) twice. Mixed cells were resuspended in FACS buffer with human Trustain FcX solution (Biolegend, Catalog No. 422302) at a density of 10⁶/mL per cell line. The mixed cell lines were seeded at 200,000 cells per well in a 96-well round-bottom plate and incubated for 20 minutes at room temperature. After incubation, the cells were centrifuged and incubated with anti-TREM2 antibodies of about 0-200 nM dose titration for 45 minutes on ice. After incubation, the cells were centrifuged and washed with FACS buffer three times. […] After incubation, the cells were washed with FACS buffer three times, resuspended in 100 μL of FACS buffer, and analyzed by flow cytometry (BD FACSCanto II, San Jose, Calif.), for which 30,000 events were obtained for each sample. Mean fluorescence intensity per cells were calculated by FlowJo software and used for generating dose response binding curve.
as §3

Row | pSyk activation (HEK293-H6) EC50 (nM) [1] [nM] | EC50 [2] [nM] | fold over background (A450) [3] [fold] | fold over background (A450) [4] [fold] | Kd [5] [nM] | Kd [6] [nM] | fold over background (A450) [7] [fold] | NFAT EC50 (nM), plate coated mAb [1] [nM] | pSyk activation (human macrophages) EC50 (nM) [1] [nM] | Kd [8] [nM] | EC50 [9] [nM] | Binder | Survival EC50 (nM), plate coated mAb, human macrophages [1] [nM]
1 | 46.6 | 1.2 | 12 | 1.2 | 14 | 13.8 | – | – | – | – | – | CL0020313 (antibody, V domains shown, also called Clone CL0020313) VH: QVQLKQSGPGLLQPSQSLSITCTVSGFSLTSYGVHWVRQSPGKGLEWLGVIWSGGITLYNAAFMSRLSITKDNSKSQVFFKMNSLQADDTAIYYCAKVGYGSSSDYWGQGTTLTVSS VL: DVLMTQSPLSLPVSLGDQASFSCRSSQSIVHSNGNTYLEWYLQKPGQSPKLLIYKVSNRFSGVPDRFSGSGSGTDFTLKISRVEAEDLGVYYCFQGSHVPFTFGSGTKLEIK | 30.7
2 | 40.6 | 0.7 | 11 | – | 5.31 | 5.33 | 6.6 | – | – | – | – | CL0020309 (antibody, V domains shown, also called Clone CL0020309) VH: QVQLKQSGPSLVQPSQSLSITCTVSGFSLTSYGVQWVRQSPGKGLEWLGVIWTGGTTDFNAAFKSRLSITKDNSKSQVFFKMNSLQADDSAIYYCAKIGFHSAVDYWGQGTSVTVSS VL: DVLMTQTPLSLPVSLGDQASISCRSSQNIVHSNGNTYLEWYLQKPGQSPKLLIYKVSNRFSGVPDRFSGSGSGTDFTLKINRVEAEDLGLYYCFQGSHIPFTFGSGTQLEIK | 2.69
3 | 33.4 | 0.6 | 11 | – | 2.31 | 2.28 | 7.9 | 51.9 | – | – | – | CL0020308 (antibody, V domains shown, also called Clone CL0020308) VH: QVQLKQSGPSLVQPSQSLSITCTVSGFSLTTYGIHWVRQSPGKGLEWLGVIWTGGSTAFNAAFMSRLSITKDNSKSQVFFKMNSLQADDTAIYYCAKVGFHSATDYWGQGTSVTVSS VL: DVLMTQTPLSLPVTLGDQASISCRSSQNLVHSNGNTYLEWYLQKPGQSPKLLIYKVSNRFSGVPDRFSGSGSGTDFTLKISRVEAEDLGLYYCFQGSHVPFTFGSGTKLEIK | 8.9
4 | – | – | 14 | 1.7 | 0.54 | 13.4 | 5.4 | 81.7 | 9.5 | – | – | CL0020201 (antibody, V domains shown, also called Clone CL0020201) VH: EVQLQQSGPVLVKPGASVRMSCKPSGYTFTDYYMNWVKQSHGKSLEWIGSINPYTGGSSYNQNFRGKATLTVDKSSSTAYMELNSLTSEDSAVYYCARGSYYSNLGFAYWGQGTLVTVSA VL: DVQLTQSPSFLTASPGETITINCRASKSISKYLAWYQEKPGKTNKLLISSGSTLQSGIPSRFSGSGSGTDFTLTISSLEPEDFAMYYCQQYSEYPFTFGSGTKLEIK | 6.6
5 | – | – | – | – | – | – | – | – | – | 0.14 | 0.25 | CL0020123-1 (antibody, V domains shown, Humanized variant of CL0020123 (hVH NGDS/2 m, Vk graft); also called Clone CL0020123-1) VH: QVQLVQSGAEVKKPGASVKVSCKASGFSIEDFYIHWVRQAPGQGLEWMGWIDPENGDSKYAPKFQGRATITADTSTSTAYMELSSLRSEDTAVYYCHADHGNYGSTMDYWGQGTLVTVSS VL: DIQMTQSPSSLSASVGDRVTITCHASQHINVWLSWYQQKPGKAPKLLIYKASNLHTGVPSRFSGSGSGTDFTLTISSLQPEDFATYYCQQGQTYPRTFGQGTKVEIK | –
6 | – | – | – | – | – | – | – | – | – | 0.32 | 0.29 | CL0020123-6 (antibody, V domains shown, Humanized variant of CL0020123 (hVH QGDS/1 m, Vk graft); also called Clone CL0020123-6) VH: QVQLVQSGAEVKKPGASVKVSCKASGFSIEDFYIHWVRQAPGQGLEWMGWIDPEQGDSKYAPKFQGRVTITADTSTSTAYMELSSLRSEDTAVYYCHADHGNYGSTMDYWGQGTLVTVSS VL: DIQMTQSPSSLSASVGDRVTITCHASQHINVWLSWYQQKPGKAPKLLIYKASNLHTGVPSRFSGSGSGTDFTLTISSLQPEDFATYYCQQGQTYPRTFGQGTKVEIK | –
7 | – | – | – | – | – | – | – | – | – | 0.18 | 0.23 | CL0020123-2 (antibody, V domains shown, Humanized variant of CL0020123 (hVH NGDS/1 m, Vk graft); also called Clone CL0020123-2) VH: QVQLVQSGAEVKKPGASVKVSCKASGFSIEDFYIHWVRQAPGQGLEWMGWIDPENGDSKYAPKFQGRVTITADTSTSTAYMELSSLRSEDTAVYYCHADHGNYGSTMDYWGQGTLVTVSS VL: DIQMTQSPSSLSASVGDRVTITCHASQHINVWLSWYQQKPGKAPKLLIYKASNLHTGVPSRFSGSGSGTDFTLTISSLQPEDFATYYCQQGQTYPRTFGQGTKVEIK | –
8 | – | – | – | – | – | – | – | – | – | 0.17 | 0.17 | CL0020123-4 (antibody, V domains shown, Humanized variant of CL0020123 (hVH NGES/2 m, Vk graft); also called Clone CL0020123-4) VH: QVQLVQSGAEVKKPGASVKVSCKASGFSIEDFYIHWVRQAPGQGLEWMGWIDPENGESKYAPKFQGRATITADTSTSTAYMELSSLRSEDTAVYYCHADHGNYGSTMDYWGQGTLVTVSS VL: DIQMTQSPSSLSASVGDRVTITCHASQHINVWLSWYQQKPGKAPKLLIYKASNLHTGVPSRFSGSGSGTDFTLTISSLQPEDFATYYCQQGQTYPRTFGQGTKVEIK | –
9 | – | – | – | – | – | – | – | – | – | 0.39 | 0.38 | CL0020123-8 (antibody, V domains shown, Humanized variant of CL0020123 (hVH QGES/1 m, Vk graft); also called Clone CL0020123-8) VH: QVQLVQSGAEVKKPGASVKVSCKASGFSIEDFYIHWVRQAPGQGLEWMGWIDPEQGESKYAPKFQGRVTITADTSTSTAYMELSSLRSEDTAVYYCHADHGNYGSTMDYWGQGTLVTVSS VL: DIQMTQSPSSLSASVGDRVTITCHASQHINVWLSWYQQKPGKAPKLLIYKASNLHTGVPSRFSGSGSGTDFTLTISSLQPEDFATYYCQQGQTYPRTFGQGTKVEIK | –
10 | – | – | – | – | – | – | – | – | – | 0.4 | 0.24 | CL0020123-3 (antibody, V domains shown, Humanized variant of CL0020123 (hVH QGDS/2 m, Vk graft); also called Clone CL0020123-3) VH: QVQLVQSGAEVKKPGASVKVSCKASGFSIEDFYIHWVRQAPGQGLEWMGWIDPEQGDSKYAPKFQGRATITADTSTSTAYMELSSLRSEDTAVYYCHADHGNYGSTMDYWGQGTLVTVSS VL: DIQMTQSPSSLSASVGDRVTITCHASQHINVWLSWYQQKPGKAPKLLIYKASNLHTGVPSRFSGSGSGTDFTLTISSLQPEDFATYYCQQGQTYPRTFGQGTKVEIK | –
